Here are results for 6 molecules from PMC6588284 (Biochemistry, 2019).

By stoichiometry N is commonly meant the number of molecules, sites or subunits per partner or assembly.

Data set [1] concerns the target KvAP-C247S (Aeropyrum pernix). Briefly: cross-linking.
For data set [2], the target named is KvAPΔCTD+Lys (Aeropyrum pernix). Briefly: cross-linking.
The target in data set [3] is SUMO CTD fusion with the native C247 residue (Aeropyrum pernix). Briefly: cross-linking.
Data set [4] has as its target SUMO-GCN4 fusion protein (Aeropyrum pernix | not stated). Kind of data set: SEC. (In general: In gel filtration, larger molecules generally elute earlier.)
Data set [5] has the same target. Kind of data set: cross-linking.
Data set [6] deals with KvAP-C247S (Aeropyrum pernix). Briefly: cross-linking. This is another data set of the same source.
The data set “SEC” deals with the molecule itself. Briefly: SEC.

Regarding KvAP-C247S (natural protein), in data set [1], the stoichiometry N worked out at 4. In data set [2], KvAPΔCTD+Lys (domain or fragment) came in with a percent cross-linked (tetramer) of 100%, a percent tetramer at 2 hours of 4%, a stoichiometry N of 4 and a tetramer yield relative to the full length protein of 0.5. In data set [3], “SUMO CTD fusion with the native C247 residue (domain or fragment)” displayed a stoichiometry N of 2. For the molecule SUMO-GCN4 fusion protein, the stoichiometry N in data set [4] and in data set [5] was 4 each time.

B1: S6-CTD peptide (peptide)
peptide: CVTATTVGYGDVVPATPIGKVIGIAVMLTGISALTLLIGTVSNMFQKILVGEPEPSSSPAKLAEMVSSMSEEEFEEFVRTLKNLRRLENSMKGS
On to B1, for which the percent decrease in the KvAP tetramer yield in data set [6] amounted to 60%. In the case of LVGEPEPSSSPAKLAEMVSSMSEEEFEEFVRTLKNLRRLENSMK (domain or fragment, Aeropyrum pernix) [SUMO-CTD fusion protein], the “stoichiometry N” value in “SEC” is 2.
